Two molecules from patent US8080523 (dated 2011) can be followed below.

B1: Kv1.1 (other)
chain: MTVMSGENADEASTAPGHPQDGSYPRQADHDDHECCERVVINISGLRFETQLKTLAQFPNTLLGNPKKRMRYFDPLRNEYFFDRNRPSFDAILYYYQSGGRLRRPVNVPLDMFSEEIKFYELGEEAMEKFREDEGFIKEEERPLPEKEYQRQVWLLFEYPESSGPARVIAIVSVMVILISIVIFCLETLPELKDDKDFTGTIHRIDNTTVIYTSNIFTDPFFIVETLCIIWFSFELVVRFFACPSKTDFFKNIMNFIDIVAIIPYFITLGTEIAEQEGNQKGEQATSLAILRVIRLVRVFRIFKLSRHSKGLQILGQTLKASMRELGLLIFFLFIGVILFSSAVYFAEAEEAESHFSSIPDAFWWAVVSMTTVGYGDMYPVTIGGKIVGSLCAIAGVLTIALPVPVIVSNFNYFYHRETEGEEQAQLLHVSSPNLASDSDLSRRSSSTISKSEYMEIEEDMNNSIAHYRQANIRTGNCTTADQNCVNKSKLLTDV
Regarding B1, the dissociation constant Kd was 1.1 nM with ShK(L3), 1 nM with ShK(L1) and 1.1 nM with ShK(D2).

B2: Kv1.3 (other)
chain: MTVVPGDHLLEPEAAGGGGGDPPQGGCGSGGGGGGCDRYEPLPPALPAAGEQDCCGERVVINISGLRFETQLKTLCQFPETLLGDPKRRMRYFDPLRNEYFFDRNRPSFDAILYYYQSGGRIRRPVNVPIDIFSEEIRFYQLGEEAMEKFREDEGFLREEERPLPRRDFQRQVWLLFEYPESSGPARGIAIVSVLVILISIVIFCLETLPEFRDEKDYPASPSQDVFEAANNSTSGAPSGASSFSDPFFVVETLCIIWFSFELLVRFFACPSKATFSRNIMNLIDIVAIIPYFITLGTELAERQGNGQQAMSLAILRVIRLVRVFRIFKLSRHSKGLQILGQTLKASMRELGLLIFFLFIGVILFSSAVYFAEADDPSSGFNSIPDAFWWAVVTMTTVGYGDMHPVTIGGKIVGSLCAIAGVLTIALPVPVIVSNFNYFYHRETEGEEQAQYMHVGSCQHLSSSAEELRKARSNSTLSKSEYMVIEEGGMNHSAFPQTPFKTGNSTATCTTNNNPNSCVNIKKIFTDV
Consider B2, for which the Kd with ShK(D3) turned out to be 0.07 nM. This lies in the picomolar range.

By Kd is commonly meant a measure of binding affinity in units of concentration. High values mean a looser complex, low ones a tighter complex.
